# T1: recombinant mouse ephrin B1-Fc (R & D) (mouse, UniProt P52795 30-229)
# T1 construct: Bought protein (R & D); also called EB1; not shown: Fc part of the bought fusion protein is not described
# T1 sequence (looked up): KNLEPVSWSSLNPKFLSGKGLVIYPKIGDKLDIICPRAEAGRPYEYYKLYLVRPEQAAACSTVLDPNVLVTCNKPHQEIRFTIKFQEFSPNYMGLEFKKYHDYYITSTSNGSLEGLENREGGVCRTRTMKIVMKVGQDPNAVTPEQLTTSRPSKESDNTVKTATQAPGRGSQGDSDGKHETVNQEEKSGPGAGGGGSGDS
# T2: recombinant human ephrin B3-Fc (R & D) (human, UniProt Q15768 28-224)
# T2 construct: Bought protein (R & D); also called EB3; not shown: Fc part of the bought fusion protein is not described
# T2 sequence (looked up): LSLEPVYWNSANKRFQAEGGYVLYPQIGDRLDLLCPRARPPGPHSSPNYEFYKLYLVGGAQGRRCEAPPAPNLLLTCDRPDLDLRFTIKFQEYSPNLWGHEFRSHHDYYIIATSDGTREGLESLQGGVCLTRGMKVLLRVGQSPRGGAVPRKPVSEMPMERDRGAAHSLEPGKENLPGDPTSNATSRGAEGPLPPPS
# B1: scFv B11 (human anti-ephrin B2 single chain variable fragment) (scFv)
# scFv: QVQLVQSGAEVKKPGASVRLSCEASGYTFTDYYIHWVRQAPGQGLEWMGWMNPSSGNTGYAQKFQGRVTMTRNTSISTAYMELSSLRSEDTAVYYCARDITGTATGFDYWGQGTLVTVSSGGGGSGGGGSGGGGSEIVLTQSPLSLPVTLGQPASISCRSSQSLLHSNGYNYLDWYLQKPGQSPQLLIYLGSNRASGVPDRFSGSGSGTDFTLKISRVEAEDVGVYYCMQGLLSPVTFGQGTRLDIKRTVAAPTAAAEQKLISEEDLNGAALEHHHHHH
# notes: Expressed from pET28b in the E. coli periplasm with c-myc and a histidine tail; also called clone B11; B11 antibody
# B2: scFv 2B1 (human anti-ephrin B2 single chain variable fragment) (scFv)
# scFv: QVQLVQSGGGLVQPGRSLRLSCAASGFTFDDYAMHWVRQAPGKGLEWVSGISWNSGSIGYADSVKGRFTISRDNAKNSLYLQMNSLRAEDTALYYCARGHRTSDAFDIWGQGTMVTVSSGGGGSGGGGSGGGGSQPVLTQPPSVSLAPGKTARITCGGDSIGLKSVHWYQQKPGQAPVLVMSSDSDRPSGIPDRFSGSNSGNTATLTITRVEAGDEADYYCQVWDSSSDHMVFGGGTKLTVLGQPKAAPSAAALEDYKDDDDKHHHHHH
# notes: Expressed from pET28b in the E. coli periplasm with a histidine tail; also called clone 2B1; 2B1 antibody
# Assays:
# [1] = biological target: T3, ephrin B2-Fc (extracellular region of ephrin B2 fused to the Fc domain of human IgG, expressed in mammalian … (human)); experiment: SPR (Biacore X), ephrin B2-Fc immobilised on CM5 chip, scFv at 0.4, 0.2, 0.1, 0.05 uM, Langmuir 1:1 model
# T3 construct: extracellular domain; Antigen used for panning, ELISA and Biacore; also called extracellular region of the ephrin B2
# T3 sequence (P52799 whole entry, the tested form may be a part): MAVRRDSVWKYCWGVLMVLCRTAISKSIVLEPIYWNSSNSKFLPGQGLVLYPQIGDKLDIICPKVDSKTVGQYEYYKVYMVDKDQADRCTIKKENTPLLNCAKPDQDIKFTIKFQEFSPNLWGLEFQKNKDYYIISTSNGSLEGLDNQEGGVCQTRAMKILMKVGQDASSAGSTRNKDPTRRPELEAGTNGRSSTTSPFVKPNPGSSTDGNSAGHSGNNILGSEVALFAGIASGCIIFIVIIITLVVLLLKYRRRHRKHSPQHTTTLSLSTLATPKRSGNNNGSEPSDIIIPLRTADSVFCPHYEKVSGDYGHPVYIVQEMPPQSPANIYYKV
# Description: (§1) The two selected scFv, B11 and 2B1, were characterized using various techniques. First we determined the antibodies affinity constants to the ephrin B2 by means of surface plasmon resonance technique on a Biacore X, with the extracellular region of the immobilized ephrin B2 and different dilutions of purified scFv. […] Then, it was analyzed, using the same technique, the capacity of the antibodies to compete for the binding of ephrin B2 to its natural receptor Eph B4. To this end, Eph B4-Fc was immobilized on a chip and the binding to ephrin B2 was measured in the presence of different concentrations of B11 or 2B1. […] However, the 2B1 antibody has no blocking effect (FIG. 5).
# (§2) To study the affinity constants of the scFv was used the technique of surface plasmon resonance with the BIAcore X equipment (BIAcore). The ephrin B2-Fc was covalently bound to CM5 chip surface (GE Healthcare) upon activation of the carboxyl groups of the dextran matrix of the chip with 0.4 M EDC (1-ethyl-3-(-dimethylaminopropyl)-carbodiimide) and 0.1 M NHS(N-hydroxysuccinimide) in a 1:1 ratio for 7 minutes at a flow rate of 10 μl/minute. The ephrin B2-Fc protein was diluted to 10 μg/ml in 10 mM sodium acetate at pH 4 and 30 μl of this solution was passed over the chip surface at a flow rate of 10 μl/min in HBS-EP buffer (10 mM HEPES pH 7.4, 150 mM NaCl, 3 mM EDTA, 0.005% surfactant P20) (GE Healthcare). […]
# [2] = biological target: T3, ephrin B2-Fc (extracellular region of …); experiment: SPR competition: serial dilutions of scFv mixed with 0.2 uM ephrin B2-Fc, injected over immobilised Eph B4
# Description: A. Graph showing the percent of binding of ephrin B2 to Eph B4. Binding inhibition tests of ephrin B2 to Eph B4 in the presence of scFv anti-ephrin B2 by surface plasmon resonance. Serial dilutions of scFv B11 (•) or 2B1 (∘) were mixed with ephrin B2 and injected over Eph B4 immobilized on a chip. The relative amount of ephrin B2 bound to Eph B4 was measured immediately after injection of each sample and plotted as a function of the concentration of scFv. […] B. The scFv B11 is capable of blocking the interaction between ephrin B2 and Eph B4 receptor in a cellular assay. Analysis of tyrosines phosphorylation of the Eph B4 receptor in HUVEC cells in response to stimulation with ephrin B2 overexpressed on the surface of HEK293 cells. HUVEC and HEK293 cells overexpressing ephrin B2 were cocultured for 20 minutes in the presence or absence of anti-ephrin B2 scFv. After Eph B4 receptor immunoprecipitation, it was analyzed the total amount of this protein (lower panel) and its level of phosphorylation (upper panel) by immunoblot.
# The ability of scFv to inhibit the binding of ephrin B2 to its EphB4 receptor was analyzed by surface plasmon resonance competitive binding assay. Soluble Eph B4 (R&D) was conjugated to a CM5 chip (GE Healthcare) using the same protocol described above. […]
# [3] = biological target: T1, recombinant mouse ephrin B1-Fc (R & D); experiment: immunoblot; periplasmic fraction of the scFv, detected with anti c-Myc and anti-mouse peroxidase conjugate
# Description: (§3) Recombinant mouse proteins ephrin B1-Fc, mouse ephrin B2-Fc and human ephrin B3-Fc (R & D) were separated electrophoretically in polyacrylamide-SDS 10% gels and transferred onto nitrocellulose membrane (GE Healthcare). After blocking the membrane with PBS-3% skimmed milk powder for 1 hour, it was incubated with 1:5 diluted periplasmic fraction in PBS-3% powdered milk for 16 hours at 4° C. The secondary antibodies used were anti c-Myc (Sigma) at a 1:1000 dilution for 2 hours at room temperature and anti-mouse peroxidase conjugate (Sigma) diluted 1:5000 for 1 hour at room temperature. Visualization was performed by incubation with ECL reagent (ECL, “Enhanced Chemiluminescence”) (GE Healthcare).
# [4] = biological target: T2, recombinant human ephrin B3-Fc (R & D); experiment: as above
# Description: as §3
# [5] = biological target: T3, ephrin B2-Fc (extracellular region of …); experiment: SPR (Biacore X), ephrin B2-Fc immobilised on CM5 chip, scFv at 30, 20, 10 and 7.5 uM, Langmuir 1:1 model
# Description: as §1, §2
Binder,Kd [1],IC50 [2],binding result [3],binding result [4],Kd [5]
B1,110 nM,300 nM,no binding,no binding,
B2,,,no binding,no binding,630 nM

# From patent US20130287795A1 (FUNDACION CENTRO NACIONAL DE INVESTIGACIONES ONCOLOGICAS, published 2013)
